Reference: publication PMC11342335, “An anti-sortilin affibody-peptide fusion inhibits sortilin-mediated progranulin degradation” (Frontiers in Immunology, 2024)

What was measured:
[1] = target: T1, sortilin on the surface of U-251 and PC-3 cells (human (endogenous in U-251 and PC-3), UniProt Q99523 78-831); test: cell-based or functional assay
T1 sequence (looked up): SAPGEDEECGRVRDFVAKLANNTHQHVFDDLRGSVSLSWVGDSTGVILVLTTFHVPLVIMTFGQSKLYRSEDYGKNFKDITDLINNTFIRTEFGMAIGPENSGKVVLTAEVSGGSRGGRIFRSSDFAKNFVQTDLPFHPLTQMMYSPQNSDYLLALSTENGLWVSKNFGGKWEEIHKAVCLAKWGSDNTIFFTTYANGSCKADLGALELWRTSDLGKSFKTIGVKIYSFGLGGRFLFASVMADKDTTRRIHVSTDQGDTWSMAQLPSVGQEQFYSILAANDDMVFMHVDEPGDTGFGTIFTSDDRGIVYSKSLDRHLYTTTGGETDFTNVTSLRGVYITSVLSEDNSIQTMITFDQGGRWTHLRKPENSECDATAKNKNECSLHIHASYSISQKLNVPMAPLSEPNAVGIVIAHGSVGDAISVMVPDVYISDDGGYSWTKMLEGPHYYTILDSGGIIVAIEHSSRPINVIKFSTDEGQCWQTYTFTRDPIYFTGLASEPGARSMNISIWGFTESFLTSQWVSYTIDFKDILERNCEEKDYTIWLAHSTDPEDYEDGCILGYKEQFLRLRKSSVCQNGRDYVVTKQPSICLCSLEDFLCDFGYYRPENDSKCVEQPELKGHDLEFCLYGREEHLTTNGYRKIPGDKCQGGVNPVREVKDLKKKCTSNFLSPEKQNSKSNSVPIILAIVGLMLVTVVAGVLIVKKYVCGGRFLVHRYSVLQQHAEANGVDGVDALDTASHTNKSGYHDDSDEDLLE

[2] = target: T2, human sortilin (R&D Systems, 3154-ST) (human, UniProt Q99523 78-755); test: SPR; Biacore 8K, affinity determination of second-generation constructs; 30-100 RU of ABD035-containing constructs captured on immobilised HSA (CM5); 1-200 nM human sortilin injected 180 s at 30 µl/min, 25°C, PBST; 60 min dissociation; 1:1 Langmuir fit; apparent constants; n=3 technical replicates; conditions: both partners purified
T2 construct: sortilin, human, recombinant protein bought from R&D Systems (3154-ST); also called hSort; SORT1; source: bought: R&D Systems (3154-ST)
T2 sequence (looked up): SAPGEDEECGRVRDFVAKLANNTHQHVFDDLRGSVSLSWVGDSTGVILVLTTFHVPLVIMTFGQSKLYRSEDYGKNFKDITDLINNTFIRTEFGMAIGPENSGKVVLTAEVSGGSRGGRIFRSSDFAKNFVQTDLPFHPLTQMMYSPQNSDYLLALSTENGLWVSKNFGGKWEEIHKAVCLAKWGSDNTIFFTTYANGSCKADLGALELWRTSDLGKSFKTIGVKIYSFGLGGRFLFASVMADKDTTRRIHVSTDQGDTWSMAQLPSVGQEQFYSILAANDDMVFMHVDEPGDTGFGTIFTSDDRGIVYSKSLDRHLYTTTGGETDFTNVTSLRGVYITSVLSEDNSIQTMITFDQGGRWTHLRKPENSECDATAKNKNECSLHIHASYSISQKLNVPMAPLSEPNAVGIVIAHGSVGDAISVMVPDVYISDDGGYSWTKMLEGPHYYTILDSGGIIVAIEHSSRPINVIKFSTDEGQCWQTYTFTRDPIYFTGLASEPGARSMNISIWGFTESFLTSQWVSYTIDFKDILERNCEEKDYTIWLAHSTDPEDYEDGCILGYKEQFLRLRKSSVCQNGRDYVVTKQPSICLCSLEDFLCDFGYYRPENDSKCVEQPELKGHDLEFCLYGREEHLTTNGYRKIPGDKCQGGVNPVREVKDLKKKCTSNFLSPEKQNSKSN

B1: ABD-PGRNC21* (His6-ABD035-PGRNC21*) (peptide, UniProt P28799 573-593, looked up)
chain: LRREAPRWDAPLRDPGLRQLL
notes: progranulin (PGRN), human, the 21 C-terminal residues L573-L593 (PGRNC21) with A588G (PGRNC21*); numbers count from the start codon; also called the PGRN C-terminus; PGRNC alone; source: E. coli BL21 Star, purified (IMAC, HisPur Cobalt); not shown: ABD035, N-terminal, kept
PGRN clearance assay: fold increase of extracellular PGRN (ELISA) against untreated U-251 cells after 72 h, at the highest tested concentration (500 nM); no plateau, no EC50 [1]: ≤ 1.44 fold
Kd [2]: 15.9 nM
koff [2]: 0.00337 s⁻¹
kon [2]: 212000 M⁻¹ s⁻¹
